Biological target: T1, HEK293 cells transfected with recombinant human VSIG3-eGFP (human, UniProt Q5DX21 23-431)
T1 construct: whole, on cells; not shown: eGFP
T1 sequence (looked up): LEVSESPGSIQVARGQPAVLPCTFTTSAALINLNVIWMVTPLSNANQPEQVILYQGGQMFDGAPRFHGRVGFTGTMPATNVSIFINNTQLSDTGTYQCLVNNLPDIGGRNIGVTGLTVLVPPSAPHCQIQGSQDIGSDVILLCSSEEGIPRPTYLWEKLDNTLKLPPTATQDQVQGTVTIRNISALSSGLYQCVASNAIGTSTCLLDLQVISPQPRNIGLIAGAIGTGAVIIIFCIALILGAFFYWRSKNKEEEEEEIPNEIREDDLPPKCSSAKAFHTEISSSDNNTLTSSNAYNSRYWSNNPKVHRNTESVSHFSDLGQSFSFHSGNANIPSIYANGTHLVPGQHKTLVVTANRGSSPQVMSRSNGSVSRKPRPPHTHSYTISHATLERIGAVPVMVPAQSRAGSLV
Experiment: flow cytometry, anti-Fc APC detection

binding result: no binding
B1: recombinant human Siglec-7 (rhSiglec-7)/Fc protein (Fc fusion, UniProt Q9Y286 19-357, looked up)
chain: QKSNRKDYSLTMQSSVTVQEGMCVHVRCSFSYPVDSQTDSDPVHGYWFRAGNDISWKAPVATNNPAWAVQEETRDRFHLLGDPQTKNCTLSIRDARMSDAGRYFFRMEKGNIKWNYKYDQLSVNVTALTHRPNILIPGTLESGCFQNLTCSVPWACEQGTPPMISWMGTSVSPLHPSTTRSSVLTLIPQPQHHGTSLTCQVTLPGAGVTTNRTIQLNVSYPPQNLTVTVFQGEGTASTALGNSSSLSVLEGQSLRLVCAVDSNPPARLSWTWRSLTLYPSQPSNPLVLELQVHLGDEGEFTCRAQNSLGSQHVSLNLSLQQEYTGKMRPVSGVLLGAVG
notes: also called Fc-tagged Siglec7 protein; human Siglec-7 Fc protein; not shown: human IgG Fc region

— patent publication US20180371095A1 (published 2018)
